Data published in paper PMC8092405 (Proceedings of the National Academy of Sciences of the …, 2021).
Values belong to the binder of their own block, whether it stands above or below them.

Biological target: human G protein-coupled receptor 182 (GPR182) (human, UniProt O15218 1-404)
Sequence (O15218 whole entry): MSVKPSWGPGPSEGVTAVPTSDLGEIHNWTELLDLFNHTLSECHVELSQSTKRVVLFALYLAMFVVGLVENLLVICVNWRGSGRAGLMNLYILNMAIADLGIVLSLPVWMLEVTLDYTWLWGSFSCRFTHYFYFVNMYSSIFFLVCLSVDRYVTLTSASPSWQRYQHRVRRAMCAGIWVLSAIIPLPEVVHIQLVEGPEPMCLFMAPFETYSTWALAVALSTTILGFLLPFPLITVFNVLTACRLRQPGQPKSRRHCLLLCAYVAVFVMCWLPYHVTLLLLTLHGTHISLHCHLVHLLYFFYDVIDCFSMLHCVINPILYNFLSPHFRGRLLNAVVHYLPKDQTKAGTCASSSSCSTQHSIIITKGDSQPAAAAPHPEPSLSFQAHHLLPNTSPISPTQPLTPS

Ki: 9 nM
B1: human CXCL13, unlabeled (ligand)
chain: VLEVYYTSLRCRCVQESSVFIPRRFIDRIQILPRGNGCPRKEIIVWKKNKSIVCVDPQAEWIQRMMEVLRKRSSSTLPVPVFKRKIP

Ki: 260 nM
B2: human CCL19, unlabeled (ligand)
chain: GTNDAEDCCLSVTQKPIPGYIVRNFHYLLIKDGCRVPAVVFTTLRGRQLCAPPDQPWVERIIQRLQRTSAKMKRRSS
